Publication PMC6071684, “Defining the hydrophobic interactions that drive competence stimulating peptide (CSP)-ComD binding in Streptococcus pneumoniae” (Beilstein Journal of Organic Chemistry, 2018)
Where a SMILES comes first, the peptide text is derived from it. Where no end group is shown, it is not given here. [ ]: non-standard residue; d: D form. Nva = CCC[C@H](N)C(=O)O

Assays:
ComD1 receptor = ComD1 receptor (Streptococcus pneumoniae serotype 2, UniProt A0A0H2ZM50); assay: cell-based
Method: (§1) To assess QS modulation, we utilized the β-gal reporter strains, constructed by Lau and co-worker. In these strains the lacZ gene is under the control of QS (pcomX). Thus, upon QS activation, ComE will bind pcomX and transcribe lacZ (in addition to upregulation of ComX). ComD modulation can therefore be quantified by measuring β-gal activity. The peptides were first screened for their ability to activate/inhibit the ComD1 and ComD2 receptors at high concentration (10 µM).
(§2) To examine the ability of the synthesized CSP analogs to modulate the ComD receptors, and thus the QS circuit in S. pneumoniae, β-galactosidase assays were performed using D39pcomX::lacZ (group I) and TIGR4pcomX::lacZ (group II) reporter strains as described in [19].
(§3) Bacterial growth conditions. Bacteria from a freezer stock were grown as described in [19]. Briefly, the bacteria were streaked into a THY agar plate supplemented with 5% donor horse serum and chloramphenicol at a final concentration of 4 µg/mL. The plate was incubated for 8 h in a CO2 incubator (37 °C with 5% CO2). Fresh colonies (single colony for D39pcomX::lacZ; multiple colonies for TIGR4pcomX::lacZ) were picked into sterilized cultural tubes containing 5 mL of THY broth supplemented with chloramphenicol at a final concentration of 4 µg/mL and the cultures were incubated in a CO2 incubator overnight (15 h). Overnight cultures were then diluted (1:50 for D39pcomX::lacZ; 1:10 for TIGR4pcomX::lacZ) with THY and the resulting solution was incubated in a CO2 incubator for 3–4 hours, until the bacteria reached early exponential stage (0.30–0.35 for D39pcomX::lacZ; 0.20–0.25 for TIGR4pcomX::lacZ) as determined by using a plate reader.
(§4) β-Galactosidase assay. Activation assays. […] Briefly, an initial activation screening was performed at high concentration (10 µM) for all CSP analogs. 2 µL of 1 mM solution of CSP analogs in dimethyl sulfoxide (DMSO) were added in triplicate to a clear 96-well microtiter plate. […] 2 µL of DMSO was added in triplicate and served as the negative control for both groups. Then, 198 µL of bacterial culture was added to each well containing CSP and analogs, the plate was incubated at 37 °C for 30 minutes, and the OD600nm was measured. In order to measure the β-galactosidase activity in the pneumococcal culture, the cells were lysed by incubating the culture for 30 minutes at 37 °C with 20 µL of 0.1% Triton X-100. In a new plate, 100 µL of Z-buffer solution (60.2 mM Na2HPO4, 45.8 mM NaH2PO4, 10 mM KCl, and 1.0 mM MgSO4 in 18 MΩ H2O; pH was adjusted to 7.0 and the buffer was sterilized before use) containing 2-nitrophenyl-β-D-galactopyranoside (ONPG) at a final concentration of 0.4 mg/mL was added, followed by 100 µL of lysate, and the plate was incubated for 3 hours at 37 °C. The reaction was stopped by adding 50 µL of 1 M sodium carbonate solution, and the OD420nm and OD550nm were measured using a plate reader. […] For calculation of Miller units, please see data analysis below.
(§5) Analysis of activation/inhibition data. Miller units were calculated using the following formula: […]
(§6) Abs420 is the absorbance of ortho-nitrophenol (ONP). Abs550 is the scatter from cell debris, which, when multiplied by 1.75 approximates the scatter observed at 420 nm. t is the duration of incubation with ONPG in minutes, v is volume of lysate in milliliters, and Abs600 reflects cell density.

ComD2 receptor = ComD2 receptor (Streptococcus pneumoniae serotype 4, UniProt A0A0H2US84); assay: cell-based; settings: for ComD2 primary agonism screening: low induction, EC50 not determined: TIGR4pcomX::lacZ, 10 µM peptide, only analogs with greater than 75% activation compared to CSP2 were taken to EC50
ComD2 receptor, sequence (A0A0H2US84 entry or part of it): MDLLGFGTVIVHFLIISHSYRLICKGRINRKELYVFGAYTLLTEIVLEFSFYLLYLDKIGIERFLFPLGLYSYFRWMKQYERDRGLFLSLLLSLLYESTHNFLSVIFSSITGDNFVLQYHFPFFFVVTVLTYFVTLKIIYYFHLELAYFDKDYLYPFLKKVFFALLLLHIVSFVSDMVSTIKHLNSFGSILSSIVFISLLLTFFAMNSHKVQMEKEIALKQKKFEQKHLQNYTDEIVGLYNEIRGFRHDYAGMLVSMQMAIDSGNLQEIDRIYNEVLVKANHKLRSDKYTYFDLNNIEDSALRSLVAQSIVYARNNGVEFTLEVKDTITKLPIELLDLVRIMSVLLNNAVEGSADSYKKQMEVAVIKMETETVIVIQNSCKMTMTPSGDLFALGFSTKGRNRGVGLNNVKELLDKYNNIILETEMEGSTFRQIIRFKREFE
Method: as §1, §2, §3, §4, §5, §6

[1] = target: ComD1 receptor (S. pneumoniae (endogenous in D39pcomX::lacZ))
[2] = target: ComD2 receptor (S. pneumoniae (endogenous in TIGR4pcomX::lacZ))

ComD1 receptor, sequence (A0A0H2ZM50 entry or part of it): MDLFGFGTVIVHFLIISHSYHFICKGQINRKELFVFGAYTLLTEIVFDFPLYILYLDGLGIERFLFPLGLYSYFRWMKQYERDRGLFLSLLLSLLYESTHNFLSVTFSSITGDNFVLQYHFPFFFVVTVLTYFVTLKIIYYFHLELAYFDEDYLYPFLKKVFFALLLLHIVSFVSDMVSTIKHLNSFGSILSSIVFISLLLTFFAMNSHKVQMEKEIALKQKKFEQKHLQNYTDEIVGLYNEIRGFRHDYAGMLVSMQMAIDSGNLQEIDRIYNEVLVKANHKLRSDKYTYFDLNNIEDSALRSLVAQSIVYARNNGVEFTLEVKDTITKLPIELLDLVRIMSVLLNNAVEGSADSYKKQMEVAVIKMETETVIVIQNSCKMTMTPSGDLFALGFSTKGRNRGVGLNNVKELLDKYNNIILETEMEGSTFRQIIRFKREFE

Molecule	EC50 (ComD1 receptor)	EC50 (ComD2 receptor)	EC50 of activation of pcomX::lacZ (β-galactosidase) in reporter strain D39pcomX::lacZ (group I, ComD1) [1]	EC50 of activation of pcomX::lacZ (β-galactosidase) in reporter strain TIGR4pcomX::lacZ (group II, ComD2) [2]	ComD2 primary agonism screening: low induction, EC50 not determined (ComD2 receptor)
CCCC[C@H](NC(=O)[C@@H](NC(=O)[C@H](Cc1ccccc1)NC(=O)[C@H](CC(=O)O)NC(=O)[C@H](CCCNC(=N)N)NC(=O)[C@H](Cc1ccccc1)NC(=O)[C@H](Cc1ccccc1)NC(=O)[C@H](CCCCN)NC(=O)[C@H](CO)NC(=O)[C@H](CC(C)C)NC(=O)[C@H](CCCNC(=N)N)NC(=O)[C@H](CCSC)NC(=O)[C@@H](N)CCC(=O)O)[C@@H](C)CC)C(=O)N[C@@H](CCC(N)=O)C(=O)N[C@@H](CCCNC(=N)N)C(=O)N[C@@H](CCCCN)C(=O)N[C@@H](CCCCN)C(=O)O [CSP1-L13NL]	18.6 nM	> 1000 nM	–	–	–
CCC[C@H](NC(=O)[C@@H](NC(=O)[C@H](Cc1ccccc1)NC(=O)[C@H](CC(=O)O)NC(=O)[C@H](CCCNC(=N)N)NC(=O)[C@H](Cc1ccccc1)NC(=O)[C@H](Cc1ccccc1)NC(=O)[C@H](CCCCN)NC(=O)[C@H](CO)NC(=O)[C@H](CC(C)C)NC(=O)[C@H](CCCNC(=N)N)NC(=O)[C@H](CCSC)NC(=O)[C@@H](N)CCC(=O)O)[C@@H](C)CC)C(=O)N[C@@H](CCC(N)=O)C(=O)N[C@@H](CCCNC(=N)N)C(=O)N[C@@H](CCCCN)C(=O)N[C@@H](CCCCN)C(=O)O [CSP1-L13NV] (H-EMRLSKFFRDFI[Nva]QRKK-OH; N-terminus assumed)	15.2 nM	> 1000 nM	–	–	–
CSP1-F7HF (peptide)	–	–	81.7 nM	317 nM	–
CSP1-F8HF (peptide)	–	–	43.4 nM	> 1000 nM	–
CSP1-I12L (peptide)	–	–	8.56 nM	537 nM	–
CSP1-I12NL (peptide)	–	–	6.68 nM	> 1000 nM	–
CSP1-I12NV (peptide)	–	–	13.8 nM	853 nM	–
CSP1-L4I (peptide)	–	–	10.2 nM	> 1000 nM	–
CSP1-L4NL (peptide)	–	–	13.5 nM	> 1000 nM	–
CSP1-L4NV (peptide)	–	–	5.74 nM	627 nM	–
CSP1-L13I (peptide)	–	–	9.12 nM	705 nM	–
CSP1-L13NL (peptide)	–	–	18.6 nM	> 1000 nM	–
CSP1-L13NV (peptide)	–	–	15.2 nM	> 1000 nM	–
EMRISKFFRDFILQRKK-OH [CSP1-L4I]	10.2 nM	> 1000 nM	–	–	–
EMRLSKFYRDFILQRKK-OH [CSP1-F8Y]	85 nM	–	–	–	–^e
EMRLSKYFRDFILQRKK-OH [CSP1-F7Y]	344 nM	–	–	–	–^e
EMRVSKFFRDFILQRKK-OH [CSP1-L4V]	113 nM	–	–	–	–^e
